Target: SARS-CoV-2 spike S1 subunit (SARS-CoV-2, UniProt P0DTC2 13-685)
Assay: phosphate buffer

B1: CoV2-RBD-1C, MB/thiol-modified (structured_DNA)
DNA: CAGCACCGACCTTGTGCTTTGGGAGTGCTGGTCCAAGGGCGTTAATGGACA
modifications: 5' methylene blue; 3' thiol C3 (ThioMC3-D)
binding result: binds

Source: article doi:10.1101/2020.11.14.20231811
